Source: patent publication US20200055930A1 (Pfizer, published 2020)
Substitutions are numbered along the chain they refer to. Several values for one entry are separate records, joined by “and”; a condition that tells them apart may be missing. Equal values may be shown once. Values belong to the binder of their own block, whether it stands above or below them.

How the values were obtained:
[1] = target: T1, Mouse Fc-human GDF15 (Mu IgG1Fc_Fxa_Hu GDF15) (human (GDF15 part)); experiment: SPR BIAcore T200 37C; Fc-GDF15 captured, IgG analyte
T1 construct: Whole fusion entry; also called Murine dimeric IgG1 Fc-human GDF-15 with FXa cleavage site; control human GDF15
T1 chain: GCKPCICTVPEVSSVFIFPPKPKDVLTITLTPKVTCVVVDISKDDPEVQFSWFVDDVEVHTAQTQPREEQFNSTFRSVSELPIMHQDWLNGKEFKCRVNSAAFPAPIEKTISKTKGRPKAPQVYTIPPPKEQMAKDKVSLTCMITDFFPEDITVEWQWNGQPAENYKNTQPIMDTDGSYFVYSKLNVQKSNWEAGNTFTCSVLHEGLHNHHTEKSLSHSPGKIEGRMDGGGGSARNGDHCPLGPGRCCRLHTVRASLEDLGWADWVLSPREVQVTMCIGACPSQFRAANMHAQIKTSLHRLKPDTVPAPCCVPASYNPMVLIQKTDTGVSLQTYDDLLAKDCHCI
Method: Mouse Fc-human GDF15 (Mu IgG1Fc_Fxa_Hu GDF15; SEQ ID NO:2), Mouse Fc-mouse GDF15 (Mu IgG1Fc_Fxa_Mu GDF15; SEQ ID NO:5) and Mouse Fc-cynomolgus monkey GDF15 (Mu IgG1Fc_Fxa_Cyno GDF15; SEQ ID NO:4) were captured onto three different flow cells of a CM4 sensorchip (catalogue number BR100534, GE Healthcare) surface using the Mouse Antibody Capture Kit (BR100838, GE Healthcare) according to the manufacturer's protocol. The running and sample buffer was 10 mM HEPES pH 7.4, 0.15M NaCl, 3 mM EDTA, 0.05% P-20 (HBS-EP+). The final capture levels of Mu IgG1Fc_Fxa_Hu GDF15, Mu IgG1Fc_Fxa_Mu GDF15 and Mu IgG1Fc_Fxa_Cyno GDF15 were 40 resonance units (RU), 32 RU and 25 RU respectively. Flow cell 1 was used as a reference flow cell. […] The dissociation was monitored for 2.8 hours and the surface was regenerated with 10 mM Glycine pH 1.7. Binding affinities and rate constants were determined for murine and cynomolgus monkey GDF15 by fitting the resulting sensorgram data to a 1:1 Langmuir model in BIAcore T200 Evaluation software version 2.0 (GE Healthcare). […]

[2] = target: Mouse Fc-mouse GDF15 (Mu IgG1Fc_Fxa_Mu GDF15) (mouse (GDF15 part)); experiment: SPR BIAcore T200 37C; Fc-GDF15 captured, monomeric Fc-Fab analyte
[3] = target: Mouse Fc-mouse GDF15 (Mu IgG1Fc_Fxa_Mu GDF15) (mouse (GDF15 part)); experiment: SPR BIAcore T200 37C; Fc-GDF15 captured, monomeric Fc-Fab analyte; average
[4] = target: T1, Mouse Fc-human GDF15 (Mu IgG1Fc_Fxa_Hu …); experiment: SPR BIAcore T200 37C; Fc-GDF15 captured, monomeric Fc-Fab analyte
From the text: (§1) To understand the KD value, without the avidity effect, of GDF15_001 binding to GDF15, monomeric Fc-Fab was produced and tested in the same assay used in Example 2. […] Mu IgG1Fc_Fxa_Hu GDF15, Mu IgG1Fc_Fxa_Mu GDF15 and Mu IgG1Fc_Fxa_Cyno GDF15 were captured onto three different flow cells of a CM4 sensorchip (catalogue number BR100534, GE Healthcare) surface using the Mouse Antibody Capture Kit (BR100838, GE Healthcare) according to the manufacturer's protocol. The running and sample buffer was 10 mM HEPES pH 7.4, 0.15M NaCl, 3 mM EDTA, 0.05% P-20 (HBS-EP+). The final capture levels of Mu IgG1Fc_Fxa_Hu GDF15, Mu IgG1Fc_Fxa_Mu GDF15 and Mu IgG1Fc_Fxa_Cyno GDF15 were 19 resonance units (RU), 22 RU and 19 RU respectively. Flow cell 1 was used as a reference flow cell. […] The dissociation was monitored for 1200 seconds and the surface was regenerated with 10 mM Glycine pH 1.7. Binding affinities and rate constants were determined by fitting the resulting sensorgram data to a 1:1 Langmuir model in BIAcore T200 Evaluation software version 2.0 (GE Healthcare).

[5] = target: T2, Mouse Fc-cynomolgus monkey GDF15 (Mu IgG1Fc_Fxa_Cyno GDF15) (cynomolgus monkey (GDF15 part)); experiment: as above
T2 construct: Whole fusion entry; also called Murine dimeric IgG1 Fc-cyno GDF-15 with FXa cleavage site
T2 chain: T1 chain with H239R, R254H, A287E, T296M, S297N, I345V
From the text: as §1

[6] = target: Mouse Fc-mouse GDF15 (Mu IgG1Fc_Fxa_Mu GDF15) (mouse (GDF15 part)); experiment: SPR BIAcore T200 37C; Fc-GDF15 captured, monomeric Fc-Fab analyte; murine GDF15 ligand (Mu IgG1Fc_Fxa_Mu GDF15), first run
[7] = target: Mouse Fc-mouse GDF15 (Mu IgG1Fc_Fxa_Mu GDF15) (mouse (GDF15 part)); experiment: SPR BIAcore T200 37C; Fc-GDF15 captured, monomeric Fc-Fab analyte; murine GDF15 ligand (Mu IgG1Fc_Fxa_Mu GDF15), second run
[8] = target: T2, Mouse Fc-cynomolgus monkey GDF15 (Mu …); experiment: SPR BIAcore T200 37C; Fc-GDF15 captured, IgG analyte
Method: (§2) Mouse Fc-human GDF15 (Mu IgG1Fc_Fxa_Hu GDF15; SEQ ID NO:2), Mouse Fc-mouse GDF15 (Mu IgG1Fc_Fxa_Mu GDF15; SEQ ID NO:5) and Mouse Fc-cynomolgus monkey GDF15 (Mu IgG1Fc_Fxa_Cyno GDF15; SEQ ID NO:4) were captured onto three different flow cells of a CM4 sensorchip (catalogue number BR100534, GE Healthcare) surface using the Mouse Antibody Capture Kit (BR100838, GE Healthcare) according to the manufacturer's protocol. The running and sample buffer was 10 mM HEPES pH 7.4, 0.15M NaCl, 3 mM EDTA, 0.05% P-20 (HBS-EP+). The final capture levels of Mu IgG1Fc_Fxa_Hu GDF15, Mu IgG1Fc_Fxa_Mu GDF15 and Mu IgG1Fc_Fxa_Cyno GDF15 were 40 resonance units (RU), 32 RU and 25 RU respectively. Flow cell 1 was used as a reference flow cell. […] The dissociation was monitored for 2.8 hours and the surface was regenerated with 10 mM Glycine pH 1.7. Binding affinities and rate constants were determined for murine and cynomolgus monkey GDF15 by fitting the resulting sensorgram data to a 1:1 Langmuir model in BIAcore T200 Evaluation software version 2.0 (GE Healthcare).
(§3) Additionally, the binding of clone GDF15_001 to cynomolgus monkey and mouse GDF15 was measured using above mentioned BIAcore assay (Table 7).

[9] = target: T1, Mouse Fc-human GDF15 (Mu IgG1Fc_Fxa_Hu …); experiment: SPR BIAcore T200 37C; Fc-GDF15 captured, IgG analyte; same run as printed in Table 6 (the 8th table r7)
Method: as §2, §3

[10] = target: T1, Mouse Fc-human GDF15 (Mu IgG1Fc_Fxa_Hu …); experiment: SPR BIAcore T200 37C; Fc-GDF15 captured, IgG analyte; same run as printed in Table 6 (the 8th table r8)
Method: as §2, §3

[11] = target: T1, Mouse Fc-human GDF15 (Mu IgG1Fc_Fxa_Hu …); experiment: SPR BIAcore T200 37C; Fc-GDF15 captured, IgG analyte; same run as printed in Table 6 (the 8th table r9)
Method: as §2, §3

B2: GDF15_0297 (antibody, mouse IgG1, kappa, V domains shown)
VH: QVQLQQPGAELVKPGASVKMSCKASGYPFEGWYIHWVKQRPGQGLEWMGWNNPRTGLTNHAQKFQGKVTMTRDTSSSTAYMQLSSLTSEDSAVYYCARGVGADAAFDIWGQGTTLTVSS
VL: DIVMTQSPSSLSVSAGEKVTMSCRSSQSLLWKHGYNYLDWYQQKPGQPPKLLIYLDRNRAHGVPDRFTGSGSGTDFTLTISSVQAEDLAVYYCMQSFETPITFGGGTKLEIKR
notes: also called GDF15_297; GDF_0297
T½ [1]: 17.7 h and 14.9 h

B3: monomeric GDF15_001 (Fab, V domains shown)
VH: QVQLVQSGAEVKKPGSSVKVSCKASGYTFSSYNIDWVRQAPGQGLEWMGGINPIFGTAFYNQKFQGRVTITADESTSTAYMELSSLRSEDTAVYYCAREAITTVGAMDHWGQGTLVTVSS
VL: EIVLTQSPATLSLSPGERATLSCRTSQSVHNYLAWYQQKPGQAPRLLIYDASTRADGIPARFSGSGSGTDFTLTISSLEPEDFAVYYCQQFWSWPWTFGQGTKVEIK
notes: only the variable domains of GDF15_001 are tied to it; also called CH23LS-GDF15_001; CH23LS-GBT-GDF15_001
T½ [2]: 3.39 min and 3.73 min
koff [2]: 0.00341 s⁻¹ and 0.0031 s⁻¹
kon [2]: 1.62e+06 M⁻¹ s⁻¹ and 1.7e+06 M⁻¹ s⁻¹
Kd [3]: 1.97 nM
koff [3]: 0.00326 s⁻¹
kon [3]: 1.66e+06 M⁻¹ s⁻¹
T½ [4]: 8.54 h and 4.2 h
T½ [5]: 2.57 h and 2.05 h
Kd [6]: 2.11 nM
Kd [7]: 1.82 nM

B4: GDF15_014 (antibody, human IgG1, kappa, V domains shown)
VH: B3 VH with G50Q, F55N, T57L, H109Y
VL: EIVLTQSPATLSLSPGERATLSCRTSQNVHNYLAWYQQKPGQAPRLLIYDASNRATGIPARFSGSGSGTDFTLTISSLEPEDFAVYYCQQFWSDPYTFGQGTKVEIKR
notes: Tested in bivalent format
T½ [1]: 10.7 h and 13 h

B8: GDF15_010 (antibody, human IgG1, kappa, V domains shown)
VH: B3 VH with S31D, I54N, F55N, T57L, Y60F, H109Y
VL: B4 VL with N28S, V29L, N31S, S93N, Y96W
notes: Tested in bivalent format
T½ [1]: 13.1 h and 10.8 h

B9: GDF15_013 (antibody, human IgG1, kappa, V domains shown)
VH: B3 VH with S31D, I34M, I54N, F55N, T57L, H109Y
VL: B4 VL with Q27E, N28S, N31S, S93N, D94W, Y96W
notes: Tested in bivalent format
T½ [1]: 2.89 h and 2.56 h

B10: GDF15_022 (antibody, human IgG1, kappa, V domains shown)
VH: B3 VH with S31D, G50Q, I54N, F55N, T57L, A58I, Y60F, A100V, H109Y
VL: B4 VL with N28S, N31S, S52K, N53T, T56D, W92S
notes: Tested in bivalent format
T½ [1]: 10.9 h and 13.3 h

B12: GDF15_021 (antibody, human IgG1, kappa, V domains shown)
VH: B3 VH with F55N, T57L, A58I, Y60F
VL: B4 VL with Q27E, N31S, R54L, T56D
notes: Tested in bivalent format
T½ [1]: 0.661 h and 0.547 h

B13: GDF15_003 (antibody, human IgG1, kappa, V domains shown)
VH: B3 VH with S30T, G50Q, I54N, F55N, T57L, A100Q, H109Y
VL: B4 VL with T25A, N28S, V29L, H30S, N31S, S52K, T56D, W92S
notes: Tested in bivalent format
T½ [1]: 2.67 h and 2.1 h

B14: GDF15_015 (antibody, human IgG1, kappa, V domains shown)
VH: B3 VH with S31D, I34M, G50Q, I54N, F55N, T57L, M107T, H109Y
VL: B4 VL with N31S, R54L, T56D, W92S, S93N, Y96W
notes: Tested in bivalent format
T½ [1]: 1.94 h and 1.86 h

The next lines start with the values.

T½ [1]: 3.7 h and 4.47 h
B1: GDF15_0470 (antibody, human IgG1, kappa, V domains shown)
VH: QVQLVQSGAEVKKPGASVKVSCKASGYPFEGWYIHWVRQAPGQGLEWMGWNNPRTGLTNHAQKFQGRVTMTRDTSISTAYMELSRLRSDDTAVYYCARGVGADAAFDIWGQGTMVTVSS
VL: EIVLTQSPATLSLSPGERATLSCRSSQSLLWKHGYNYLDWYQQKPGQAPRLLIYLDRNRAHGIPARFSGSGSGTDFTLTISSLEPEDFAVYYCMQSFETPITFGQGTKVEIKR
notes: Tested in bivalent format; also called GDF15-470

T½ [1]: 2.35 h and 2.22 h
B5: GDF15_017 (antibody, human IgG1, kappa, V domains shown)
VH: B3 VH with S30T, S31D, G50Q, I54N, F55N, T57L, T91N, H109Y
VL: B4 VL with N28S, N31S, S52K, N53T, W92S
notes: Tested in bivalent format

T½ [1]: 2.7 h and 2.35 h
B6: GDF15_004 (antibody, human IgG1, kappa, V domains shown)
VH: B3 VH with G50Q, I54N, F55N, T57L, F59N, N61A, V104I, H109Y
VL: B4 VL with Q27E, N28S, N31S, N53T, T56D
notes: Tested in bivalent format

T½ [1]: 40.3 h and 20.9 h and 30.8 h
T½ [8]: 14.8 h and 15.5 h and 18.7 h
T½ [9]: 20.9 h
T½ [10]: 30.8 h
T½ [11]: 40.3 h
B7: GDF15_001 (antibody, human IgG1, kappa, V domains shown)
VH: B3 VH
VL: B4 VL with N28S, N53T, T56D, D94W, Y96W
notes: Bivalent IgG1/kappa; also called clone GDF15_001; anti-GDF15_001

T½ [1]: 2.03 h and 1.7 h
B11: GDF15_020 (antibody, human IgG1, kappa, V domains shown)
VH: B3 VH with S31D, I34M, G50Q, I54N, F55N, T57L, F59N, H109Y
VL: B4 VL with T25A, V29L, N31S, N53T, T56D
notes: Tested in bivalent format
